Details: Saccharolobus solfataricus (strain ATCC 35092 / DSM 1617 / JCM 11322 / P2), Thermal, CD, phosphate 10 mM, reversible: yes, whole UniProt chain shown

B1: DNA-binding protein 7d wild type, P39476 (protein)
chain: MATVKFKYKGEEKEVDISKIKKVWRVGKMISFTYDEGGGKTGRGAVSEKDAPKELLQMLEKQKK
Tm (pH 3): 80 °C | unfolding enthalpy (van 't Hoff) (pH 3): 50.2 kcal/mol | Tm (pH 4): 95 °C | unfolding enthalpy (van 't Hoff) (pH 4): 57.4 kcal/mol | Tm (pH 5): 98.5 °C | unfolding enthalpy (van 't Hoff) (pH 5): 62.1 kcal/mol | Tm (pH 6): 99 °C | unfolding enthalpy (van 't Hoff) (pH 6): 64.5 kcal/mol | Tm (pH 7): 98 °C | unfolding enthalpy (van 't Hoff) (pH 7): 64.5 kcal/mol | Tm (pH 8): 97.5 °C | unfolding enthalpy (van 't Hoff) (pH 8): 62.1 kcal/mol | Tm (pH 9): 97 °C | unfolding enthalpy (van 't Hoff) (pH 9): 59.8 kcal/mol

Source: FireProtDB (doi:10.1021/bi034520t)
